± gives the standard deviation of the averaged measurements.
Each sequence was assayed on Saccharomyces cerevisiae (assay: protein stability index of tFT-peptide fusion (C-terminal peptide) (PSI (0-1 scale)); higher = more stable (slower turnover)). Settings: genetic background: wild type; temperature: 30 C.
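Further: PSI is a weighted mean of sequencing reads over stability bins, variants kept only with over 10 reads, mCherry proximal and sfGFP distal, peptide attached via GGGS linker.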

Sequence | protein stability index
PAPAPSPSFRDH | 0.708 ± 0.094
PAPASDYLRGRR | 0.691 ± 0.049
PAPPPPPLPPPP | 0.615 ± 0.041
PAPPPPPPRPPP | 0.669 ± 0.071
PAPPPPPRPPPS | 0.655 ± 0.008
PAPPSPPPPLYP | 0.721 ± 0.046
PAPPSPSPPPPL | 0.836 ± 0.14
PAPPTPPPPLYP | 0.715 ± 0.015
PAPPVFVPSLPL | 0.801 ± 0.029
PAPRLEPRSPNV | 0.676 ± 0.021
PAPSAPLLRTRP | 0.6702 ± 0.0019
PAPSLPPPRLAP | 0.653 ± 0.026
PAPSPLVLFFGF | 0.692 ± 0.03
PAPSRRTVTDYW | 0.654 ± 0.015
PARTPSPPAPSH | 0.657 ± 0.056
PASASVHPRILC | 0.559 ± 0.05
PASLPPSPPLLL | 0.696 ± 0.039
PASPPTSPRSVP | 0.742 ± 0.022
PASRNWGLNPDT | 0.677 ± 0.025
PATRFSPPSSLS | 0.745 ± 0.028
PAVGPDGTIRPL | 0.706 ± 0.037
PAWVEARWLCRG | 0.764 ± 0.069
PAYLMDRGYIMT | 0.613 ± 0.031
PAYVSTLPPLLL | 0.694 ± 0.086
PCFLLPLPHTPP | 0.707 ± 0.024
PCIKHNSSLIGP | 0.701 ± 0.081

Sequence | protein stability index
PCPAPLPPPAPP | 0.619 ± 0.0098
PCPLAHSLWLMF | 0.612 ± 0.056
PCPPARSSLALS | 0.636 ± 0.051
PCPSPPALPLAP | 0.696 ± 0.056
PCTGSKRRSLKS | 0.717 ± 0.055
PCTPLPRPRTSR | 0.702 ± 0.065
PCYSFSSSPPRL | 0.693 ± 0.016
PDERMVIPAIRD | 0.665 ± 0.12
PDHFPSPALPTH | 0.702 ± 0.0097
PDPPSPSPFPAP | 0.724 ± 0.049
PDRQVTAFPCFW | 0.6787 ± 0.0051
PDSASSLTPPPP | 0.66 ± 0.085
PDTLCAYLSFGS | 0.776 ± 0.064
PDTRLGIIITNM | 0.701 ± 0.083
PDVFIWIRPLLP | 0.6282 ± 0.0062
PDVNLVRRVMSL | 0.596 ± 0.053
PDVPVTCYAASH | 0.661 ± 0.067
PEERSGTSAGRL | 0.695 ± 0.038
PEGICYCHSPAP | 0.694 ± 0.013
PEGPPRPPLHPS | 0.696 ± 0.019
PEPEPAGASQKR | 0.577 ± 0.0076
PERWFPSTPSLP | 0.702 ± 0.031
PEYGSGCNCLGS | 0.664 ± 0.0073
PFAPSPRPPQPP | 0.672 ± 0.02
PFATARLFPLPP | 0.804 ± 0.019
PFECRRPFPPPA | 0.764 ± 0.067

Sequence | protein stability index
PFEVPSSVISVP | 0.673 ± 0.13
PFIAHSACAALN | 0.604 ± 0.011
PFIPQPFPPLCS | 0.709 ± 0.075
PFPFLPSPIFPQ | 0.749 ± 0.057
PFPPPPSPPLYP | 0.7292 ± 0.0012
PFPPSAAPPLPF | 0.593 ± 0.068
PFPPSAHPPPPH | 0.795 ± 0.085
PFPRSSPPPPPD | 0.652 ± 0.017
PFPSPPSPRDAS | 0.688 ± 0.042
PFRSPSLPYFRL | 0.712 ± 0.018
PFSLLPDASPPL | 0.703 ± 0.04
PFSLPPPHLWSI | 0.746 ± 0.065
PFVCPHLPAPPP | 0.791 ± 0.094
PFVGFSLLWLGF | 0.567 ± 0.017
PGAFLRLSPPRA | 0.7019 ± 0.0013
PGAGKRLIERVK | 0.593 ± 0.062
PGCGVGSPARAE | 0.712 ± 0.032
PGCYRVPIHSFS | 0.7131 ± 0.0015
PGKRPTERLAPS | 0.749 ± 0.026
PGLIPSPRYLLP | 0.656 ± 0.024
PGLSTGAVKLLY | 0.692 ± 0.023
PGPGNGHTKRTR | 0.654 ± 0.034
PGRLVVGAGRED | 0.707 ± 0.036
PGRRATKVPSPR | 0.719 ± 0.027
PGSAVSFLLTFR | 0.646 ± 0.012
PGSFDLSDLAFA | 0.707 ± 0.073

Sequence | protein stability index
PGSRRAQPVTSG | 0.741 ± 0.022
PGTGPPSWGRTS | 0.605 ± 0.047
PGTNENPLSPGK | 0.7302 ± 0.0041
PHAGPLHTPLRL | 0.699 ± 0.019
PHILPTSDSPFP | 0.78463 ± 0.00073
PHLHLPPPPISA | 0.5857 ± 0.00069
PHLPPPPDPPRP | 0.676 ± 0.009
PHLWSLPHATTA | 0.684 ± 0.051
PHPHLPAPTPRT | 0.702 ± 0.0079
PHPPLPPPPPPP | 0.702 ± 0.018
PHPPPSSRLLSR | 0.751 ± 0.058
PHPQPRPTAPSP | 0.7177 ± 0.002
PHPVTVFLSHLS | 0.499 ± 0.041
PHRPCPPPAPPP | 0.658 ± 0.0096
PHRPIGRVKHAS | 0.71 ± 0.038
PHSPPRPLPPPL | 0.703 ± 0.047
PHTPARSLPPSR | 0.6473 ± 0.0047
PIAPDPAPVGLD | 0.721 ± 0.014
PILPPVPPRASS | 0.7029 ± 0.0053
PIPSVFSPFLFA | 0.641 ± 0.015
PIQYMLRSSMPR | 0.688 ± 0.065
PISPPSFRSPTP | 0.691 ± 0.029
PISPSLCSSILS | 0.5893 ± 0.0056
PISRRVIFCLQT | 0.62 ± 0.033
PITFTSRYLLLE | 0.697 ± 0.042
PIVRTQLGNSVQ | 0.696 ± 0.067

Sequence | protein stability index
PIYRNKGNRGGI | 0.739 ± 0.034
PKKKKKKTKAEK | 0.712 ± 0.035
PKSGPDQPQPPG | 0.591 ± 0.086
PLAFFSTRPTPF | 0.697 ± 0.03
PLALLPPPPHPP | 0.597 ± 0.07
PLAPPPLSPSPI | 0.7873 ± 0.0059
PLAPPPSILPVP | 0.703 ± 0.055
PLAPPRHRRRPG | 0.7132 ± 0.0047
PLARLRFRSVVG | 0.6678 ± 0.0038
PLASRPHPLPPP | 0.671 ± 0.02
PLDAPDTRVWEI | 0.738 ± 0.061
PLFLCVISPFRL | 0.5805 ± 0.0018
PLFLYCRSAPRL | 0.817 ± 0.025
PLFPGLARLSSS | 0.703 ± 0.031
PLFPSPSPPRHP | 0.7435 ± 0.0018
PLFTPPPVLHHP | 0.752 ± 0.031
PLGFFHKQSATV | 0.666 ± 0.023
PLGLPLPCPFLL | 0.683 ± 0.063
PLHPLPPAPFPP | 0.689 ± 0.01
PLIDRSTCSLSG | 0.6366 ± 0.0032
PLIVSPCYSLVP | 0.659 ± 0.014
PLLGPSCLRPPS | 0.791 ± 0.17
PLLIPPPPTYPP | 0.63 ± 0.038
PLLLAPPPPSPP | 0.739 ± 0.036
PLLPPALPASPF | 0.6972 ± 0.0019
PLLPPPLSPFPH | 0.659 ± 0.013

Sequence | protein stability index
PLLPPPPPLSPP | 0.6772 ± 0.0035
PLLPRSILSATG | 0.641 ± 0.043
PLLPRTPPLSAT | 0.671 ± 0.0079
PLLPSLPLPPSP | 0.716 ± 0.011
PLLRGFPAHLAS | 0.699 ± 0.078
PLNHIVHPHRAP | 0.687 ± 0.0052
PLPAPAPSPPSP | 0.695 ± 0.018
PLPHSPPPPPPT | 0.736 ± 0.024
PLPLLPLPPLAP | 0.67 ± 0.098
PLPLPPPFPPLS | 0.59 ± 0.043
PLPLPSPAPPYS | 0.68 ± 0.013
PLPLPTPPAFLS | 0.707 ± 0.08
PLPPASPCLCSY | 0.643 ± 0.049
PLPPHRLPNPRL | 0.784 ± 0.011
PLPPLPPPLSPP | 0.732 ± 0.067
PLPPLPPTRPLP | 0.688 ± 0.026
PLPPPFPGSALL | 0.727 ± 0.01
PLPPPLDLPPRS | 0.735 ± 0.12
PLPPPNPPLPVF | 0.615 ± 0.036
PLPPPPAPPLSP | 0.67 ± 0.018
PLPPPPDSPPLP | 0.694 ± 0.013
PLPPPSLPPSPS | 0.699 ± 0.036
PLPPSPLESVDT | 0.637 ± 0.027
PLPPSPTRPPAN | 0.662 ± 0.0099
PLPPVPRTPTPR | 0.662 ± 0.075
PLPPVVPTFSTP | 0.684 ± 0.0077

Sequence | protein stability index
PLPRLSPFSHPP | 0.701 ± 0.052
PLPSPSSSSSPI | 0.674 ± 0.043
PLRDIRSVRYSS | 0.685 ± 0.053
PLRMFRGGISWR | 0.734 ± 0.037
PLRPPAPRHSPP | 0.723 ± 0.013
PLRRPFSSPFLL | 0.59 ± 0.067
PLRSDSRAESLL | 0.653 ± 0.051
PLRSTYPSLLLP | 0.691 ± 0.011
PLRTCPCAPLPS | 0.689 ± 0.012
PLSDDPRRPLST | 0.688 ± 0.069
PLSLLVHPLPPS | 0.679 ± 0.011
PLSPAPPRPPPP | 0.621 ± 0.023
PLSPRPLPPPPP | 0.713 ± 0.0018
PLSPRSASTFSP | 0.67 ± 0.0013
PLSPSCTLPPRP | 0.674 ± 0.034
PLSTPLSPALLS | 0.602 ± 0.023
PLSYRPPSRFYF | 0.587 ± 0.061
PLTRSRFLLSPL | 0.653 ± 0.034
PLTVARTHRGHA | 0.689 ± 0.014
PLVVETNRFGDV | 0.6988 ± 0.004
PMHVILGLSGQP | 0.732 ± 0.059
PMLRSLVVLSSR | 0.669 ± 0.022
PMPRHVPRPTTP | 0.674 ± 0.06
PNPLCQPPTGRP | 0.705 ± 0.14
PNPPYFPSPGRS | 0.74 ± 0.044
PNRKCSGTFAAS | 0.65573 ± 0.00064

Sequence | protein stability index
PNTNIRTHCQWI | 0.709 ± 0.02
PNVAIMSGGQTV | 0.6912 ± 0.0059
PPACAHPLFWTL | 0.6499 ± 0.00087
PPACPSSRIPVF | 0.615 ± 0.041
PPALRPPPPPPP | 0.6932 ± 0.0019
PPAPHPHLPSSY | 0.685 ± 0.072
PPAPLPLAPSSL | 0.722 ± 0.042
PPAPPLPSSPSP | 0.773 ± 0.024
PPAPPSPPHPPL | 0.7133 ± 0.0036
PPAPRLPPPLPP | 0.629 ± 0.021
PPAPSPPPLPAA | 0.665 ± 0.031
PPASFTPPFLPP | 0.69 ± 0.013
PPASPRSPIVSR | 0.723 ± 0.059
PPATQSPPLPPC | 0.766 ± 0.037
PPCFPHPLPPPR | 0.744 ± 0.022
PPCPFPTLPVTH | 0.73 ± 0.013
PPCTSTTQRANP | 0.696 ± 0.073
PPDLPTRSPDNP | 0.658 ± 0.04
PPDSSPLGGEVG | 0.6775 ± 0.0058
PPFAPAPALSAS | 0.758 ± 0.11
